Experimental data as given in patent US20260008865A1 (TETHEREX PHARMACEUTICALS, published 2026).

Experiments:
[1] = target: T1, SelSP1 (PSGL-1 sulfopeptide); assay: SPR, captured SelK2, SelSP1 as analyte; value told over the two surface densities
T1 construct: also called sulfopeptide modelled after the N-terminus of human PSGL-1
Method: (§1) A new COOH2 biosensor was installed and conditioned according to CH0012 protocol. Protein G was immobilized via amine coupling. A mixture containing 0.1M EDC and 0.025M NHS was injected for 4 minutes over flow channel 1 (FC1) and FC2. 50 μg/mL Protein G in 10 mM Sodium acetate buffer pH 4.5 was injected for 15 minutes over FC1 and FC2. 1M Ethanolamine HCl solution pH 8.0 was injected for 5 minutes over FC1 and FC2. Approximately 1,145 response units (RU) of Protein G was coupled on FC1 and FC2 of the sensor chip. 50 nM SelK2 in system buffer was injected to capture approximately 2,000 RU SelK2 on FC1 and 1,000 RU on FC2. […] Each sample was injected for 3 min at a flow rate of 40 μL/min. Dissociation was monitored after each injection for 4 min at the same flow rate. Samples were tested in duplicate from low concentration to high.
(§2) Kinetic model fitting was performed using Qdat analysis software (SensiQ Technologies, Inc. Version 2.5.1.56). A simple 1:1 kinetic model was fit to the data to determine best fit values for association and dissociation rate constants, ka and kd. A local Rmax was fit for each curve to account for incomplete dissociation of the SelSP1 after some of the analyte injections.

[2] = target: T1, SelSP1 (PSGL-1 sulfopeptide); assay: SPR (SensiQ Pioneer), about 1,000 RU SelK2 captured on Protein G, SelSP1 as analyte, 25 °C, 1:1 model
Method: (§3) SensíQ Pioneer (S/N 13110154) was used for all SPR measurements at a controlled temperature of 25° C. SelK2 (Lot #14-2189) was dispensed into three 1 mL aliquots in the biosafety cabinet. Protein G was purchased from BioVision (Cat. #6510). Running buffer for Pioneer contained 10 mM HEPES pH 7.4, 150 mM NaCl, 3.4 mM EDTA and 0.005% Tween-20. All other reagents were purchased from Sigma Aldrich.
as §1, §2

[3] = target: T1, SelSP1 (PSGL-1 sulfopeptide); assay: SPR (SensiQ Pioneer), about 2,000 RU SelK2 captured on Protein G, SelSP1 as analyte, 25 °C, 1:1 model
Method: as §3, §1, §2

[4] = target: T1, SelSP1 (PSGL-1 sulfopeptide); assay: SPR; summary sentence in the description; target printed as PSGL-1, but the worked example used the PSGL-1 sulfopeptide SelSP1

B1: SelK2 (antibody, human IgG2, kappa, V domains shown)
VH: QVQLVESGGGVVQPGRSLRLSCAASGFTFSSFGMHWVRQAPGKGLEWVAYISSASSTIYYADTVKGRFTISRDNSKNTLYLQMNSLRAEDTAVYYCASSYGYWGQGTLVTVSS
VL: DIVMTQTPLSLPVTPGEPASISCRSSRSLVHSNGNTYLHWYLQKPGQSPQLLIYKVSNRFSGVPDRFSGSGSGTDFTLKISRVEAEDVGVYYCSQTTHVPLTFGQGTRLEIKR
notes: human kappa light chain; also called SelK2 antibody; humanised anti-PSGL-1 antibody
Kd [1]: 4.28 nM | Kd [2]: 4.27 nM | koff [2]: 0.00232 s⁻¹ | kon [2]: 544000 M⁻¹ s⁻¹ | Kd [3]: 4.29 nM | koff [3]: 0.00218 s⁻¹ | kon [3]: 508000 M⁻¹ s⁻¹ | fold increase in affinity against the parental antibody [4]: ~4 fold
